According to patent WO2019194217A1:

Molecular target: active IL-18 protein (human IL-18, positions 37 to 193), expressed and purified in E. coli (human) (UniProt Q14116)
Experiment: capillary western immunoassay (Wes), primary antibody at 1:25 dilution (16 μg/mL)

Sequence of UniProt Q14116 (Q14116 37-193 limits assumed): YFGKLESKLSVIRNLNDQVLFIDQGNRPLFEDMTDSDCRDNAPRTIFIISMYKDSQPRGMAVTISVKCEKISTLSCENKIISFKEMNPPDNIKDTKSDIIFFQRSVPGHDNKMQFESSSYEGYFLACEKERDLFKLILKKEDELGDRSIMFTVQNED

- concentration of IL-18 protein detectable: 100 ng/mL
Substance: commercially available anti-IL-18 antibody D043-3: clone 25-2G
